The values below come from US20090149389A1 (PURDUE RESEARCH FOUNDATION, published 2009).

Some targets named below: MAPKAP-K3 (h) (human (h), UniProt Q16644 1-382, limits assumed); Tie2 (h) (human (h), UniProt Q02763 771-1124, limits assumed); FGFR1 (h) (human (h), UniProt P11362 456-765, limits assumed); GSK3β (h) (human (h), UniProt P49841 1-420); MAPKI (h) (human (h), UniProt P28482 1-360, limits assumed); Pim-1 (h) (human (h), UniProt P11309 1-313); CKIB (h) (human (h)).
Common to all, as to assay: cell-based or functional assay
Another test addresses T1, PRAK (UniProt Q8IW41 1-473, limits assumed).
T1 sequence (looked up): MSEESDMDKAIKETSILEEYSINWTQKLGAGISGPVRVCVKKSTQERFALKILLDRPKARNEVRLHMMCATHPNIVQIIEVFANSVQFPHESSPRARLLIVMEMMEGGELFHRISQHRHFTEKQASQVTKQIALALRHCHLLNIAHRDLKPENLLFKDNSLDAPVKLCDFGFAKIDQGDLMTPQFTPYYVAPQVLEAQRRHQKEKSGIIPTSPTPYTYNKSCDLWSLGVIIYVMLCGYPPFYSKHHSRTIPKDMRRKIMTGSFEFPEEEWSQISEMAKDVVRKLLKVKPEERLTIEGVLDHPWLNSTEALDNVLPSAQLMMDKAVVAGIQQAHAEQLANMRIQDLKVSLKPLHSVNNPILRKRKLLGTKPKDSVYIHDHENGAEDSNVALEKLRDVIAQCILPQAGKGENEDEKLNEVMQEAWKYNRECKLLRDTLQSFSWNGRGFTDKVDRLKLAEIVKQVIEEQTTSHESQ

A further test deals with T2, MKK6 (h) (human (h), UniProt P52564 1-334, limits assumed).
T2 sequence (looked up): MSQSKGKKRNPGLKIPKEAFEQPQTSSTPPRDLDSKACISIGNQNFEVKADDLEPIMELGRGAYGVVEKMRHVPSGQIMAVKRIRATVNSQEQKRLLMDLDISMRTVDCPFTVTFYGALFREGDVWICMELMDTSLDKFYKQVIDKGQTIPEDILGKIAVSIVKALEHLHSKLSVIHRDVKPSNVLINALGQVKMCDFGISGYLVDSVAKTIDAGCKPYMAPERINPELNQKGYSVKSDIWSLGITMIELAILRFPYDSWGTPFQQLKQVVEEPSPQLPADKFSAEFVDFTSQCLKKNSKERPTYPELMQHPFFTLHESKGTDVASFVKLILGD

Another test deals with T3, IRAK4 (h) (human (h), UniProt Q9NWZ3 1-460, limits assumed).
T3 sequence (looked up): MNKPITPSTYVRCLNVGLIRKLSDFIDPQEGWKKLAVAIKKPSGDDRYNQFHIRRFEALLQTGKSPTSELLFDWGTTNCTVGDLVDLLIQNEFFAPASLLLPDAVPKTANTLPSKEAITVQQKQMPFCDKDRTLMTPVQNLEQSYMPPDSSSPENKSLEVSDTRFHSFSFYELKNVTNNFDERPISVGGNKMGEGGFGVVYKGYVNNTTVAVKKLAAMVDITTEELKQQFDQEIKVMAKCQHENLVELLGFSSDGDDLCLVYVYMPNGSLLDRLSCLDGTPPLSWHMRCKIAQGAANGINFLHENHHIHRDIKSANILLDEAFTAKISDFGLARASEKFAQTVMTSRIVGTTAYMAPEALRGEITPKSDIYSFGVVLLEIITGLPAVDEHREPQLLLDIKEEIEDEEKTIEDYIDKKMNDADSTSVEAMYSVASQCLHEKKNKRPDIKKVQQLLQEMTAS

In the next test the target is T4, PKG1β (h) (human (h), UniProt Q13976-2 1-686).
T4 sequence (looked up): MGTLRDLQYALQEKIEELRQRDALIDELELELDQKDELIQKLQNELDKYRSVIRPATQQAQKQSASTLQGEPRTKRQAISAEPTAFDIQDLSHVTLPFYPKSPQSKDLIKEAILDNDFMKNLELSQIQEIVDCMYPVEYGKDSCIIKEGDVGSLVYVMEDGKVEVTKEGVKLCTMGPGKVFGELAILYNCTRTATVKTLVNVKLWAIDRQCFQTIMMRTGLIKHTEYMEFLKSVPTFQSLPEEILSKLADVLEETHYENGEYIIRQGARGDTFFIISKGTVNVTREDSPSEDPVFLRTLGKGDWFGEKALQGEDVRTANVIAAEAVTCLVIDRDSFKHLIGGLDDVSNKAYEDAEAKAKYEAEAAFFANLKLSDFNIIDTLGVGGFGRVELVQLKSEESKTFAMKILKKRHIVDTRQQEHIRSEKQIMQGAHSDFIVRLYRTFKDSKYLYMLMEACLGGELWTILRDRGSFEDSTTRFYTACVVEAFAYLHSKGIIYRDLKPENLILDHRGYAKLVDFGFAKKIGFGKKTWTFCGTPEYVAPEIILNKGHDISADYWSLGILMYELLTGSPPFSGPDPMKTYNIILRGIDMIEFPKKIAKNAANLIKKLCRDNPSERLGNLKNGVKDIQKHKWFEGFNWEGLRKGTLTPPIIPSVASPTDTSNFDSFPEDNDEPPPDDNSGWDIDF

Chain of MAPKAP-K3 (h) (Q16644 whole entry): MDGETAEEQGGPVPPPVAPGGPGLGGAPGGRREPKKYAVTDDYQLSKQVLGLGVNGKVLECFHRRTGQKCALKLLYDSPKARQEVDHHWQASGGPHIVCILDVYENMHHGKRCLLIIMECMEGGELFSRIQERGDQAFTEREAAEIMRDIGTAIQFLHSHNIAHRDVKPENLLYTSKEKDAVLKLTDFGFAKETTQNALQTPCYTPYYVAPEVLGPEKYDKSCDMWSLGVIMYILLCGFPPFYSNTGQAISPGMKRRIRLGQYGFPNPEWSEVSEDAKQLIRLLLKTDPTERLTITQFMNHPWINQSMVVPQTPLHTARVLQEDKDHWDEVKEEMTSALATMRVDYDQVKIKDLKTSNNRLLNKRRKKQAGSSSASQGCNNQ
Chain of Tie2 (h) (Q02763 771-1124 limits assumed): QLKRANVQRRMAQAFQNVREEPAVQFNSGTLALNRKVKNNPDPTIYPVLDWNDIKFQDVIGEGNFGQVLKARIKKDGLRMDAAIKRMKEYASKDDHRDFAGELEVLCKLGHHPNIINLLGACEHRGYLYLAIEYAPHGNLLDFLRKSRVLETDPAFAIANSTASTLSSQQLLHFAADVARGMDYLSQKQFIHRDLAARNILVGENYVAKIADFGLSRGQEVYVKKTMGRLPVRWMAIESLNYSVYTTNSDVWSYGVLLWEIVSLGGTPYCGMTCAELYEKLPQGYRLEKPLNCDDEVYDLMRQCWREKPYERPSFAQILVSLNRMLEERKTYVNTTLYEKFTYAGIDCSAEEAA
Chain of MAPKI (h) (P28482 whole entry): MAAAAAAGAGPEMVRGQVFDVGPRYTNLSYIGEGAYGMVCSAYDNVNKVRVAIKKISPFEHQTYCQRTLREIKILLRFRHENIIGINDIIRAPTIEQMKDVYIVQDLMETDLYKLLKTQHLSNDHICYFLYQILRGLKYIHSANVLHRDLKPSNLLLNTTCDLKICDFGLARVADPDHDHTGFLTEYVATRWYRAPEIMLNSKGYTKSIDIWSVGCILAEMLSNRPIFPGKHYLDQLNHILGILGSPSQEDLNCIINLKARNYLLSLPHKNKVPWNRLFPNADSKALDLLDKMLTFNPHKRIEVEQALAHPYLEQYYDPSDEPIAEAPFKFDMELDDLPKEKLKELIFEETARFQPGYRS
Chain of GSK3β (h) (P49841 whole entry): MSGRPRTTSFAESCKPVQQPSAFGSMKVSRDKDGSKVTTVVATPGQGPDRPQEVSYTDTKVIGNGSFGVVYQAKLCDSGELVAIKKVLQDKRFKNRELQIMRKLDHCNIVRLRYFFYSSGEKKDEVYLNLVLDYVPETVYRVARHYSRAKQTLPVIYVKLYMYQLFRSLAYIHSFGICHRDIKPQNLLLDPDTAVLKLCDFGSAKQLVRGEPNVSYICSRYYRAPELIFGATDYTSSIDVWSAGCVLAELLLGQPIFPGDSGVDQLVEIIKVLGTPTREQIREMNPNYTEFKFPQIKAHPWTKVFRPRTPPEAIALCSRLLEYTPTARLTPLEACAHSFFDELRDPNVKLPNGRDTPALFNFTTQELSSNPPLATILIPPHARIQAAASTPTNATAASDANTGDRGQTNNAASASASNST
Chain of FGFR1 (h) (P11362 456-765 limits assumed): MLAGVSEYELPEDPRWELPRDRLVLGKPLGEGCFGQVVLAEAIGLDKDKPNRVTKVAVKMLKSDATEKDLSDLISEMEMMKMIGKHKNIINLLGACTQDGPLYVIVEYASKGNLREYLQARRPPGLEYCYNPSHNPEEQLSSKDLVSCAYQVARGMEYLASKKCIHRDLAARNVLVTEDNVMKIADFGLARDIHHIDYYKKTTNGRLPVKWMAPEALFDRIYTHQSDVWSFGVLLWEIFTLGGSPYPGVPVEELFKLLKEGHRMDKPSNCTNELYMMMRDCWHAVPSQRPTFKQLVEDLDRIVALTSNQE
Chain of Pim-1 (h) (P11309 whole entry): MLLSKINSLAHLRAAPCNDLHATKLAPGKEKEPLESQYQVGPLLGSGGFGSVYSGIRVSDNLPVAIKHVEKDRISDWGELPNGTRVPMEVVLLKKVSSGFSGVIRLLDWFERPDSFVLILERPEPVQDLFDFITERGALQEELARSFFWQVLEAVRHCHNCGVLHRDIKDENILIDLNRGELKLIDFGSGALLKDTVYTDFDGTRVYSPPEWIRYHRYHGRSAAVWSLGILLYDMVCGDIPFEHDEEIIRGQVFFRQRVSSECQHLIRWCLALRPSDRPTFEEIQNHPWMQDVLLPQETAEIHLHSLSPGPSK

B1: KAFAKLAARLYRKALARQLGVAA (peptide)
peptide: KAFAKLAARLYRKALARQLGVAA
As for B1, the “Profile-1 @ = 100 µm (kinase profiler assay)” value was 148 with PRAK; 48 with MKK6 (h); 17 in the test with MAPKAP-K3 (h); 16 in the test with IRAK4 (h); 8 with Tie2 (h); 35 in the test with FGFR1 (h). The “Profile-1 @ = 100 µm (kinase profiler assay)” value amounted to 24 with PKG1β (h); 184 with GSK3β (h); 108 with MAPKI (h); 1 with Pim-1 (h); 97 with CKIB (h).
